Measured values taken from publication PMC7968656.

Biological target: protrusion protein of OmRV-LZ (N-terminal part of P3, cleaved from the ORF1-encoded precursor) (Omono River virus strain LZ (OmRV-LZ))
Assay: cryo-EM structure; sub-particle refinement of the protrusion extracted from the virus particles, capsid signal subtracted; first C1, then C5 symmetry; 4.10 Å

Question: For “protrusion protein of OmRV-LZ (N-terminal part of P3, cleaved from the ORF1-encoded precursor) (natural protein)”, which stoichiometry N is on record?
Answer: 5
